Laboratory results: patent US20070066800A1, “Apo2l(trail) receptor binding peptides and uses thereof” (priority 2003, published 2007)

How the values were obtained:
Assay type in all cases: binding
Details in all cases: Table IV cross-reactivity; phage clones
[1] = biological target: T1, Hu DR5 IgG (SEQ ID NO: 109) (Homo sapiens, UniProt O14763); experiment: Ic50 cross-reactivity ELISA, Hu DR5 IgG
T1 construct: Human DR5 IgG fusion polypeptide
Protocol: (§1) 1. Coat microtiter plate wells with 80 ul of 1 ug/ml Apo-2L receptor DR5 ECD (SEQ ID NO: 105) (in 50 mM sodium carbonate pH 9.6) at 4° C. overnight.
(§2) 3. Prepare competing receptor solutions (100 ul/sample).
(§3) 6. Transfer 80 ul the mixture of competing receptor and phage from the non-sticky plate to DR5 ECD coated plate and incubate 20 minutes at room temperature.
(§4) In the Tables provided herein, “Ic 50” refers to the measure of the concentration of peptide needed to inhibit 50% of Apo-2L (e.g. amino acids 114 to 281 of SEQ ID NO: 1) binding to an Apo-2L receptor molecule (e.g. DR4-IgG (SEQ ID NO: 108) or DR5 ECD (SEQ ID NO: 105) etc.). The peptides are classified such that class 1-class 4 represent a, b, c, and d respectively.
(§5) Table VIII identifies the sequence identification numbers (SEQ ID NOs.) for the various peptides disclosed herein.

[2] = biological target: T2, Hu DR4 IgG (SEQ ID NO: 108) (Homo sapiens, UniProt O00220, H141R/R209T); experiment: Ic50 cross-reactivity ELISA, Hu DR4 IgG
T2 construct: Human DR4 IgG fusion polypeptide
Protocol: as §1, §2, §3, §4, §5

[3] = system: Cyno DR5 IgG (SEQ ID NO: 112); experiment: Ic50 cross-reactivity ELISA, Cyno DR5 IgG
Protocol: as §1, §2, §3
Peptides of the invention and their Ic 50 values (e.g. determinations of Ic 50 in ELISA based assays using a DR5 ECD (SEQ ID NO: 105) competitor) are identified in Table III below. In the Tables provided herein, “Ic 50” refers to the measure of the concentration of peptide needed to inhibit 50% of Apo-2L (e.g. amino acids 114 to 281 of SEQ ID NO: 1) binding to an Apo-2L receptor molecule (e.g. DR4-IgG (SEQ ID NO: 108) or DR5 ECD (SEQ ID NO: 105) etc.). The peptides are classified such that class 1-class 4 represent a, b, c, and d respectively.
Table IV below provides certain properties of selected peptides, for example Ic50 cross-reactivity data with DR4 and DR5 polypeptides. Table VIII identifies the sequence identification numbers (SEQ ID NOs.) for the various peptides disclosed herein.
Using these methods, the Ic 50 values for various phage clones expressing peptide sequences of interest were generated and are provided in the Tables below. […]

[4] = system: Cyno DR4 IgG (SEQ ID NO: 111); experiment: Ic50 cross-reactivity ELISA, Cyno DR4 IgG
Protocol: as §1, §2, §3, §4, §5

[5] = biological target: T3, Hu TNFR IgG (SEQ ID NO: 110) (Homo sapiens, UniProt P19438); experiment: Ic50 cross-reactivity ELISA, Hu TNFR IgG
T3 construct: Human TNFR1 IgG fusion polypeptide
Protocol: as §1, §2, §3, §4, §5

T1 sequence (O14763 with tags, fused parts or gaps): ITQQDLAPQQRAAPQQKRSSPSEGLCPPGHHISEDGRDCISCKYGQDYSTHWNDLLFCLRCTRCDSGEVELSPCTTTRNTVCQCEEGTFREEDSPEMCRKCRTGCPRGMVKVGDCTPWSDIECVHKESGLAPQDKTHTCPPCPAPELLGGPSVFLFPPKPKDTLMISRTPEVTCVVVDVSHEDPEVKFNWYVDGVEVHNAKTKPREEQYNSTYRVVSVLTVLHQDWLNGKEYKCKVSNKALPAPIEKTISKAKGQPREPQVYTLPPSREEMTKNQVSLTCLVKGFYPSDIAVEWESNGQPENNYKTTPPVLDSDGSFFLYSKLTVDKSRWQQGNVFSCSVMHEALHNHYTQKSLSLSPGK
T3 sequence (P19438 with tags, fused parts or gaps): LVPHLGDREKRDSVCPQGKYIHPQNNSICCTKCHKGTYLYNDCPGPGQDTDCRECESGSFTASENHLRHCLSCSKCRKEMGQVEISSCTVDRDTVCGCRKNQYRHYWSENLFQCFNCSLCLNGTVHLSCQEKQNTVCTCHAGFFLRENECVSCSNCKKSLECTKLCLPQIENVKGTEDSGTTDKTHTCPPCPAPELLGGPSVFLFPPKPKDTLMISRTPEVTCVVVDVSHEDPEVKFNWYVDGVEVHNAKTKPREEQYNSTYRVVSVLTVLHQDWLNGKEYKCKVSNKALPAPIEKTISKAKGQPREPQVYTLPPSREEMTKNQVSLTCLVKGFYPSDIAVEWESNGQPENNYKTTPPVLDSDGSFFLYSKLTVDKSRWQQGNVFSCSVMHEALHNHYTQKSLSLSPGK
Chain of Cyno DR4 IgG (SEQ ID NO: 111) (as listed by the source): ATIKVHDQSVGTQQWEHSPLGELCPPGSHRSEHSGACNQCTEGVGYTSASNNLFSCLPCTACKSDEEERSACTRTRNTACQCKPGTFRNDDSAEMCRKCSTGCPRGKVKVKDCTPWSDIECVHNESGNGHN
T2 sequence (O00220 with tags, fused parts or gaps H141R/R209T): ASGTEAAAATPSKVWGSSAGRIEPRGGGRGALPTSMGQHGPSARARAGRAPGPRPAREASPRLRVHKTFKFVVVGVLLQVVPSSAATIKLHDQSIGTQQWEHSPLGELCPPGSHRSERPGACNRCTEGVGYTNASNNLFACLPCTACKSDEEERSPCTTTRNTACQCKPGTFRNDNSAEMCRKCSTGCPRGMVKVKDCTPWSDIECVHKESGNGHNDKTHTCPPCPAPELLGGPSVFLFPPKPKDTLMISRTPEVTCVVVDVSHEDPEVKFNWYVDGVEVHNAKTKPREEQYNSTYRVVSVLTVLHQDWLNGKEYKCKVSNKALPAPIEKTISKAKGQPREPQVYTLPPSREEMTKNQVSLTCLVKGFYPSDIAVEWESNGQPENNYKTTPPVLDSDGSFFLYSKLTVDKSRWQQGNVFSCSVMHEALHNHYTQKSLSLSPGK

**Q.** With “Hd5-11: phage-derived DR5 binding peptide, class C1, SEQ ID NO: 15, first generation (G1) lead (QEVCMTSCDKLMKCNWMAAM)” as the substance, how does the IC50 [1] read?
**A.** The IC50 was 8 nM.

**Q.** What about the IC50 [2] of the same substance?
**A.** The IC50 was 1000 nM.

**Q.** What about the IC50 [3] of the same substance?
**A.** Its IC50 is 10000 nM.

**Q.** And the IC50 [4]?
**A.** The IC50 was 1000 nM.

**Q.** And the IC50 [5]?
**A.** Its IC50 is 1000 nM.
